The record followed here is patent publication US20250297323A1, “METHODS OF USING LONG NON-CODING RNA-8 (TROLL-8) AS A TARGET FOR CANCER DETECTION AND TREATMENT” (H. LEE MOFFITT CANCER CENTER AND RESEARCH INSTITUTE, INC., priority 2022, published 2025).

Experiment [1] addresses T1, carnitine palmitoyltransferase 1A (CPT1A) (human, UniProt P50416 2-773).
T1 construct: Endogenous protein immunoprecipitated from cell lysate with anti-CPT1A antibody (15184-1-AP, Proteintech); also called FAO rate-limiting enzyme
T1 sequence (looked up): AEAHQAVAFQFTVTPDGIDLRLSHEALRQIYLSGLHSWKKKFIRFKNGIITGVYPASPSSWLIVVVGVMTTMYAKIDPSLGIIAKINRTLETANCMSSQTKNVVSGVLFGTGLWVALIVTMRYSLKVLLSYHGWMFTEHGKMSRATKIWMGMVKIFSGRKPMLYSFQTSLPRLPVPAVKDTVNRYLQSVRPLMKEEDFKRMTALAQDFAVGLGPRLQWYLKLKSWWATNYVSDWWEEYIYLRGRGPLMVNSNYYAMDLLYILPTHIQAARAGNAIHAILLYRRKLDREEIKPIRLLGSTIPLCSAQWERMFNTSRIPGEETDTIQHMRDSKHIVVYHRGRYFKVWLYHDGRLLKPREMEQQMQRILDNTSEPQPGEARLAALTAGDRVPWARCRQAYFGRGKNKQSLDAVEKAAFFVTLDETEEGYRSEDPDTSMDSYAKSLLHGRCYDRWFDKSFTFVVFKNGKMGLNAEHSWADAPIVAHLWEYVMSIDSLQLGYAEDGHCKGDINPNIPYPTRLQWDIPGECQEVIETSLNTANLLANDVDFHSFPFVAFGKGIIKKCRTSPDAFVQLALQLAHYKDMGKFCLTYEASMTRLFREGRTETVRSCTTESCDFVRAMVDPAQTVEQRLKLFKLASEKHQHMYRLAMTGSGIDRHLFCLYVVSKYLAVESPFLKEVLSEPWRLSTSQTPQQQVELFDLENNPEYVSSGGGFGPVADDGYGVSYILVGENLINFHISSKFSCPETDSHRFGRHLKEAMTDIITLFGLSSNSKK
The experiment can be described thus: co-IP with anti-CPT1A antibody from CA1D cell lysate, LC-MS/MS proteomics. The procedure:
4 mg cell lysate of CA1D cells were prepared using RIPA buffer and used to test the interaction between CPT1A and ACAT1. 4 mg cell lysate of either CA1D cells transfected with siRNAs for TROLL-8, or with the non-targeting siRNA as a negative control, were used to test the change in the interaction between CPT1A and ACAT1. The CoIP assay was performed according to the protocol provided with the anti-CPT1A primary antibody (15184-1-AP). Add anti-CPT1A primary antibody (15184-1-AP, Proteintech) or negative control normal rabbit IgG (#2729, Cell Signaling) corresponding to the primary antibody source to the lysate with gentle rocking at 4° C. for 12 h. 50 ul Protein G Dynabeads slurry were added to capture the immunocomplex with gentle rocking at 4° C. for 12 h. Collect the beads with magnetic stand and discard the supernatant. Wash the beads 3 times with 1 ml 0.2% TBST, collect the beads with magnetic stand and discard the supernatant. […] The interaction was then detected via western blot using the following primary antibodies: CPT1A (ab128568, Abcam), ACAT1 (ab168342, Abcam), and beta-actin (A5441, Sigma-Aldrich).
1.5×10⁶ CA1D cells were transfected with either siNT (negative control) or siTROLL-8. […] The SDS-PAGE gel bands or the immunoprecipitated proteins were extracted, digested with trypsin, and analyzed via LC-MS/MS and the identified peptides are listed in Supplementary Data 1. […]

For experiment [2], the target named is T1, carnitine palmitoyltransferase 1A …. The experiment can be described thus: co-IP with anti-CPT1A antibody from CA1D cell lysate, western blot. The source says:
Beyond its classical activity, ACAT1 acetylates the Pyruvate Dehydrogenase Phosphatase Catalytic Subunit1 (PDP1) and the Pyruvate Dehydrogenase E1 Subunit Alpha1 (PDHA1) in the Pyruvate Dehydrogenase Complex (PDC), which negatively regulates the activity of Pyruvate Dehydrogenase (PDH) in glycolysis and tumor growth. […] In the experiment, we have the following groups: whole cell lysate (5% of the total input); cell lysate from either CA1D cells, or siNT/siTROLL-8 treated CA1D cells immunoprecipitated with CPT1A specific antibody; or the same cell lysate immunoprecipitated with normal IgG control antibody. […] While there is no change in the expression level of either CPT1A or ACAT1 in the whole cell lysate, CPT1A specifically immunoprecipitated more ACAT1 (by around 2-fold) in siTROLL-8 CA1D cells compared to non-treated cells, confirming the LC-MS discovery that TROLL-8 depletion increased the physical interaction between CPT1A and ACAT1.
4 mg cell lysate of CA1D cells were prepared using RIPA buffer and used to test the interaction between CPT1A and ACAT1. 4 mg cell lysate of either CA1D cells transfected with siRNAs for TROLL-8, or with the non-targeting siRNA as a negative control, were used to test the change in the interaction between CPT1A and ACAT1. The CoIP assay was performed according to the protocol provided with the anti-CPT1A primary antibody (15184-1-AP). […]

B1: ACAT1, the acetyl-CoA acetyltransferase 1 protein (enzyme, human, UniProt P24752 34-427, looked up)
chain: VSKPTLKEVVIVSATRTPIGSFLGSLSLLPATKLGSIAIQGAIEKAGIPKEEVKEAYMGNVLQGGEGQAPTRQAVLGAGLPISTPCTTINKVCASGMKAIMMASQSLMCGHQDVMVAGGMESMSNVPYVMNRGSTPYGGVKLEDLIVKDGLTDVYNKIHMGSCAENTAKKLNIARNEQDAYAINSYTRSKAAWEAGKFGNEVIPVTVTVKGQPDVVVKEDEEYKRVDFSKVPKLKTVFQKENGTVTAANASTLNDGAAALVLMTADAAKRLNVTPLARIVAFADAAVEPIDFPIAPVYAASMVLKDVGLKKEDIAMWEVNEAFSLVVLANIKMLEIDPQKVNINGGAVSLGHPIGMSGARIVGHLTHALKQGEYGLASICNGGGGASAMLIQKL
notes: Endogenous protein co-immunoprecipitated with CPT1A from cell lysate; also called acetyltransferase ACAT1
On to B1, for which the “fold change of co-immunoprecipitation with CPT1A (TROLL-8 depleted vs non-treated CA1D cells)” value in experiment [1] is around 2 fold. The “fold change of ACAT1 immunoprecipitated by CPT1A (siTROLL-8 vs non-treated CA1D cells)” value in experiment [2] is around 2 fold.
